A short description of the series: soluble on expression in E. coli; label from the status in PepcDB or PDB records.
Consider “MYDTVRDRLIHLHHCRGAGWKTIHSLLKVDPTLTAPFSLPPNDLRPLVPLSDAQWTAFFHDLHSIDVQRVIKTYKGRCIRVITVFDSDYPPLLKYIYAPPWVLYAKGDSALLQEWKLISIVGTRRPTKEGIEALNKLVPPLVAAGFTIVSGLAFGIDVCAHQLAVQHGGSTIAVIAGGLDHIYPKEHRPFATLLMNEQLVIAEHPPATRPQAWQFPARNRIISGLSLGTLVVQAKRKSGSLITAAYALEQGREVFAVPGPIGLAESAGPNTLIQHGAKLVQEAADILDEFPYV”, for which the “soluble on expression in E. coli” value was “not soluble”.
Under “MYDYSILPNRIILCVDLRSFYASVSCIKMGLDPMHTKLAVVGDVNRNGSIVLAATPPLKALGVKKMARLYEIPRRKDILVVNPIMSTYIKCSNYITKLALQYVPIEDFHQYSIDEFFMDITDSIHLFAQDPYEFAMKFKREIYDHTRIECTIGIAPNPLMSKVALDIEAKKNKDGIAFWQYEDIPTKLWSIRPLNKFWGISYKTEEKLNRKGIYSIGDLANYPLKYLKQSFGKIGEELHLHSHGIDFSRISEKYVPATTSIGKSQILMRDYTIEEFPIILLEHIEEVCYRLRRQTKLAQTIHFSVGYSKSYTGGIRKTHTLNRPTNLTMDIYHICTYFLHQQYTGEPIRSINISLTNLIQEGEEQISLFDNVTKREQEMKLTKVMDEIRTKFGKNSILRGISYTHSATARHRNTLIGLEHHHHHH” stands “not soluble”.
With “MYEPLHRDAEQKDTAPHDPISILLLGIDERPGDKGRPDSMIVMTVNPKTKKTTMTSIPRDTRVFIKSKNKFSKMNSAYTYGGIEGTVETVEQFLNIPINYYIKINMDGFKDIVDAIGGVTVDNRIDFTLEGVHLSKGKQHLDGKTALTYARMRKDDPRGDFGRQERQREIINEIIHEGAQLKSLTNYQEILAALEKNIKTNLTLDKMIDIQSSYKEAAKDIKQVEIEGEDKKVDSLWYHLVTDEKRMEISKKLRQQLDLKSLEHHHHHH”, the “soluble on expression in E. coli” value is given as “soluble”.
On to “MYEQQQHFMDLQSDSGFGDDSSWLAGDDDLRLSPHQSAAGTNSGNENLDRRLLKDLVEMVPLIEHYMEHKERSSFKRRGSMIYTKMPSKESLSRRGRNASQTVPGRKKRDQEGNDDVMNNSREDDENAKALAGAEKEEMSRLREQVNDLQTKLSEKEEVLKSMEMSKNQVNEIQEKLEATNRLVAEKDMLIKSMQLQLSDTKIKLADKQAALEKTQWEAKTTGTRAIKLQEQLDAVEGDISTFTRVFETLAKTDSKKPDRDYDAVPYEFDHLPYLDDVDETDLRKMEEARLAYVAAVNTAKEREDEESLVMAAQARAYLQSLAFTY”, for which the “soluble on expression in E. coli” value was “soluble”.
With “MYGKLLICATASINVININHYIVELKQHFDEVNILFSPSSKNFINTDVLKLFCDNLYDEIKDPLLNHINIVENHEYILVLPASANTINKIANGICDNLLTTVCLTGYQKLFIFPNMNIRMWGNPFLQKNIDLLKNNDVKVYSPDMNKSFEISSGRYKNNITMPNIENVLNFVLNNEKRPLD”, the “soluble on expression in E. coli” value was “soluble”.
For “MYKILEIADVVKVPPEEFGKDLKETVKKILMEKYEGRLDKDVGFVLSIVDVKDIGEGKVVHGDGSAYHPVVFETLVYIPEMYELIEGEVVDVVEFGSFVRLGPLDGLIHVSQIMDDYVSYDPKREAIIGKETGKVLEIGDYVRARIVAISLKAERKRGSKIALTMRQPYLGKLEWIEEEKAKKQNQE”, the “soluble on expression in E. coli” value is listed as “soluble”.
In the case of “MYKPITFSLKYIFKTAGKVEVQGREKLPEGGPYVVACTHTSFMDVLMLATGMYPTEIHYMAKKELFEGKFKNWFFKNVNAFPVDRANPGPSTLKIPSRLLKEGKVVGIFPSGTRSTEDVSLKAGAVTIAMRSNVPLIPAAYIGPSSVKELIKGKRAQLIFGDPIQIDAEEQIDRKTAMKMMTDQLNEKFEGLKEALQSNQK”, the “soluble on expression in E. coli” value is “not soluble”.
In the case of “MYLMSSIPPLIDLLPHDTPLALVDELIEVNDLSVHCQVTIGENNVFFDHETKTVPAWVGIEFMAQSIAGWSGYHAWKKGNKSPIGFLLGSRKYQAECSEFQQGDTLDIFAEQVLENNGMAVFSCYIEHKGQQLASSQLNVFVPTEEKLEELLTPKQLEHHHHHH”, the “soluble on expression in E. coli” value is “soluble”.
Under “MYLTKEEELALSGEYGPAIQKAMEILVALGDIYNADRLIPIKSAQIAGVSYKNIGDEGIEFLRDFVEAGAKVSVYTTLNPAGIGDEDFMEKQAEIIELYRKMGVEITSTCTPYYGPNLPKYGDHLAWSESSAVIFANSVLGARTNREGGPSSLAAAIVGKTPNYGLHLEENRKATHIIEVKDKLKSRTEYSLLGYKIGEIVENGVPYIRGIAPTTEDLKALGASMAASGGVGLYHVEGSTPEWRGAIVDKIEKIEIGRKDLEDVRQRFSVDWGDVDIILLGCPHASLREIKEIAELLRMRDKPLKIPLFITVSRGIKALADYLGYTEIIERYNGKLLPDVCLVVSPIKEWYSGVATDSGKAAFYLKSFGLKVLLDTTENIIMGAPLEHHHHHH” stands “not soluble”.
The value for “MYNDDELTEFMDFLVEQTKDSIYPMVAAKVFKQFPNRRLIPKDKRYQRFVLQLAPKMNDWNNYSIEARIRLMYALRGKVEDDFLARIEAHGTVQLNEKQRISKFTANDGTFFLEDDRKRLSLDATRLEFVKLMGFLIEKTKDAVEPLPNTKLIFQEFSQIEPVKKPNDTDIMYKFRSSLAPYMDKWNDYSIEDRVRLMFALGGKIKDGFLRTIETHGTLQLDDKRRITKYVSNDGNFKLEGIRRNVHKKEATGPEYTRFMDFLIKTTKEAVEPMRVWLVHNEFKRQEGRKFSKSGYAKRFHKKLAPNMSKWTNYKIEERTRMMFAMKGKVESDFLAQIEESGKVQLDENHLIVKYTSKNRKIKLGGETRLVEKKKRKSTNYHKMHQKRRKIIRSVTDETSLVAKWKRKSDSYYEMYQKRRKIGEKELSDTAEVEEVAPYDSDYGNVYVENLEAEDQDTQLNPFNAMSDLTTDGPSSNAHDLTMWPNDDPKQEPVFENIFIQNQYFPPEIEEVPNQGVYHVEPETKLSYINTNPGSSVTESGGIKLHKFLNLLELILTSLESDTLDDLLNDIEGIRVRINDEILPPELVITALQTFLLGITRKSRSAASAENKSSHECLRIFKYSLPWLRSPLLWELQQRVEEEIESHVIGGKIILVADVQQGIRNILFAVSN” was “not soluble”; that for “MYNDVLFPGEDINKPISIAAANRFVNRIRGGMDLGYWRTHDFRRTLVTRLSEMNVEPHVTERMLGHELGGIMSVYNKHDWIEAQRKAYELHADKLFWHIRSISD” was “not soluble”; that for “MYNLLTKQEIQLLSLIEYLYDSKEKVPMQVLRRKYEFSHYNINNLLNQLTLLISRVNTHENVHIRIINNQQSIELVADENIPIELMKEAVVRGSLTYMLALDLLLKRYTSAKDFCEEHFINFSIFKQVSDRLNNHLARFNCYLNLKRREKICGNEKDFRSFFYSLFFISGTSLVPFLSKTNQAQLQNFIEIIKNRYPYFTYTDLRKLKLIMSIGLLRYQSGFTITNYPEVAAINLAFPYSEFQLLVNDCFIDEQKEPDTWQAEIHFYYDFFSTLTMYSLVQMETINFANLAIMGMDNSPHATWIFEKCTQLQLDLSAIEVVFLLVNLSNASERLIHFPVEEELSYEVANVSLYEKQYPNVSRTTNYFLKRLPFDKQHPLDALFKETIFLIIRSVLLNKQIPVKILLHSSINQIQENWLAKEINNYCDVPLKFVNHIQEVPDLVITDKNNPLFHASKTFYWHPVPYLDEYYNLKQVVRKIYFAKLRGENSLEGIGC” was “not soluble”.
With “MYQDLIRNELNEAAETLANFLKDDANIHAIQRAAVLLADSFKAGGKVLSCGNGGSHCDAMHFAEELTGRYRENRPGYPAIAISDVSHISCVSNDFGYDYIFSRYVEAVGREGDVLLGISTSGNSGNVIKAIAAAREKGMKVITLTGKDGGKMAGTADIEIRVPHFGYADRIQEIHIKVIHILIQLIEKEMVK”, the “soluble on expression in E. coli” value is listed as “not soluble”.
With “MYQSYPQQQQPGYQPQQPSHPIVGAGAAPTMAPQNPYGQQPFQPQFQQGQYQQPSGQQYQSMQQQFQSPQQQAPTQPTHPDRESYQTALPANVTPGWNDPPSMLPSAGTTPNRLSNMRRRPVDPSISGNVGYGTSSQTSNPYGASASPYGAPQQNPQQYQEQPQSYQTYQQPQQQQPQYGQQQNPQQFGQQYPGAGAPHQQQHYGM”, the “soluble on expression in E. coli” value is reported as “not soluble”.
Consider “MYQVIRMYGAMEPWWFLDDWKEDITKVLEFDNYHEALQCYQKEWAKLRRRYSDFNSHGDIMTAFWNKQDQHWCEECGDYVQRYHSLALLTDWQETPSSWFRPTFTKQLEHHHHHH”, for which the “soluble on expression in E. coli” value is “soluble”.
In the case of “MYRTHYSSEITEELNGQKVKVAGWVWEVKDLGGIKFLWIRDRDGIVQITAPKKKVDPELFKLIPKLRSEDVVAVEGVVNFTPKAKLGFEILPEKIVVLNRAETPLPLDPTGKVKAELDTRLNNRFMDLRRPEVMAIFKIRSSVFKAVRDFFHENGFIEIHTPKIIATATEGGTELFPMKYFEEDAFLAESPQLYKEIMMASGLDRVYEIAPIFRAEEHNTTRHLNEAWSIDSEMAFIEDEEEVMSFLERLVAHAINYVREHNAKELDILNFELEEPKLPFPRVSYDKALEILGDLGKEIPWGEDIDTEGERLLGKYMMENENAPLYFLYQYPSEAKPFYIMKYDNKPEICRAFDLEYRGVEISSGGQREHRHDILVEQIKEKGLNPESFEFYLKAFRYGMPPHGGFGLGAERLIKQMLDLPNIREVILFPRDRRRLTP”, the “soluble on expression in E. coli” value is reported as “soluble”.
As to “MYSIKMRSSNQDVHISGAETICEFDKIEQTVQRFYNKGFFHENGQPDFLNIKIQKIMEPIQQIKALQIIEDDKANLQHLTQECGVTEQALNQGMTYIKNETVYTGAIILSAISGKRLDSFGQRGIRATHFSFEDINNKGDLNERVTDALAIASCINAHPYVKGELCVSDDLTYTTGYFAAAKIGYHRLFDIKPVNTRYGGRIIFVDDCIDLNHYISFLESTPKQVVYETV”, the “soluble on expression in E. coli” value is listed as “not soluble”.
Under “MYSVSLMHGNPKTAIRPAGWHYGRRVYWIEGLPLIGHIAFGVIDRGTNVLQVRPSTLCFHNCIFCSVDAGPSSRRRRSEYTVEWEQLVVWVEKVARVKGGGLEALIDGVGEPLTHPHITRIIKALKGLDAIERVALETHGGSLSKSLARALEKAGLDRINLSVDAADPRLARSLVGVDWYGVDRVLKTAEWIIANTSIDVVLTPVVLPGVNEKEMATLVHWARRVGAGRKSGWPTGVLIQKFEIHKYGRKPSTVKSVWGWRRFYTWLARLEKETGYRLLVDPGEIGFKPRPRVEKPFERGDRVTLVLVGPGWHKGELLAVDRGWRRVVALYGLTEGEALTPGAEVEARIVRDKDNIFIAVPYAAALEHHHHHH” stands “soluble”.
Under “MYTHLTDMTNMLDTAKIGTSDGTFPLANAQNLQKAVEELQTGISKGMAGYFVLQYEIDNYCIAAEKAIAEFQDSYQQTLQPGTPAELKVFGIDGKGRIEFGSDPAYGGGNTFTVESWVKYDAGFFESGIGSFLSTFDGKQPNEGWMINFLGSNLRTTIGMGPQEGRVLEEGRAYPDNFGKWNHVVTVWDNTLPEGQLKMYVNGELFFSKTNDVKNDAGVLQNYMPNTRNQNMWAFQEPTDNSRCMTGFIKKFRMWSTAKSANEVKTLMNSDVTGTESGLVCAWDFTTVVEDVTNIPDKTGKHVAKIVGNYKWFKVEN” stands “not soluble”.
For the sequence “MYTIAALYHFTRFADPADLKPALLDLCLAQGVKGTLLLAKEGINGTIAGPRAGIDAVLAHIRALPGCSDLEWKEATSDHPPFGKMKVRLKQEIVTMGQPDVDPRARVGHYVEPEDWNDLIRSDDVVLIDTRNDYEVAIGTFEGAIDPMTESFRDFPAWWEANKERFHNKRVAMFCTGGIRCEKSTNYLLGQGVEDVYHLKGGILRYLEEVPAENSTWQGECFVFDNRVSVGHGLVEGPHELCHGCRRPILPEDRNRPEYEHGVSCHLCIDETSEADKMRFRERQKQIALARARGEDHLATH”, the “soluble on expression in E. coli” value is reported as “not soluble”.
On to “MYVIDTSAIISRNLNLLEGDLMFPSSVIGEIKKGKLRYMIDVLLPMIRVASPDHEYLKIVEETAAKTGDLMNLSQTDKDVLALALQYDATIVTDDYSIQNVASYLNLGFLNA”, for which the “soluble on expression in E. coli” value is on record as “soluble”.

Values taken from the DeepSol protein solubility set.
